For assay [1], the target named is huFcγRIIIa_F158 His protein (human, UniProt P08637 17-208). The experiment in a line: SPR, His-receptor captured, assay 1 n=3. For orientation: Surface plasmon resonance follows binding to a sensor surface in real time, without labels.
For assay [2], the target named is T1, huFcγRIIIa_V158 His protein (human, UniProt P08637 17-208).
T1 construct: also called His-tagged recombinant human FcγRIIIa-V158
The experiment in a line: SPR, His-receptor captured, assay 1 n=3.

Another assay has as its target T2, human FcγRIIa R131 (human, UniProt P12318 34-317, limits assumed).
T2 construct: FACS implies display on cells, but the methods name no FcγRIIa cell line; also called huFcγRIIa R131
T2 sequence (looked up): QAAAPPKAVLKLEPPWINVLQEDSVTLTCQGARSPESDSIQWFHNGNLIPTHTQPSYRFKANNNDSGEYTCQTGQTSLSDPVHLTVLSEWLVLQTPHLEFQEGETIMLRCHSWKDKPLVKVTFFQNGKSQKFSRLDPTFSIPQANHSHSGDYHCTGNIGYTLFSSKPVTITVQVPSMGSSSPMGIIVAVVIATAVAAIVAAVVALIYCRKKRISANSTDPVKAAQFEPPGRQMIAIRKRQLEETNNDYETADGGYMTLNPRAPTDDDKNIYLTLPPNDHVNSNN
The experiment in a line: FACS, assay 1 n=3. On the technique in general: In flow cytometry, cells or beads pass a laser one at a time.

The next assay has as its target T3, human FcγRIIa H131 (human, UniProt P12318 34-317, limits assumed).
T3 construct: FACS implies display on cells, but the methods name no FcγRIIa cell line; also called huFcγRIIa H131
T3 sequence (looked up): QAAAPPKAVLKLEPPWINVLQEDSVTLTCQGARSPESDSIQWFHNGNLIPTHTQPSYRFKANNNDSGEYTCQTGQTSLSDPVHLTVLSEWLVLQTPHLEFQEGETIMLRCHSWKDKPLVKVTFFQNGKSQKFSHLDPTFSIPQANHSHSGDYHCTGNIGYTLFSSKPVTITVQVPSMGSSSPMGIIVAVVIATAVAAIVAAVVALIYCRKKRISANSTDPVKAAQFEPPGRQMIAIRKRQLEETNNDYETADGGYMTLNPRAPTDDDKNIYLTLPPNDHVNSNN
The experiment in a line: FACS, assay 1 n=3.

Another assay has as its target T4, human FcRn (human, UniProt P55899 24-297).
T4 construct: also called huFcRn; recombinant human FcRn
The experiment in a line: SPR pH 6.0, huFcRn captured, assay 1 n=3.

Assay [3] has as its target T5, FcγRIIIa F158 on HEK293T cells (human, UniProt P08637 17-254).
T5 construct: whole, on cells; also called HEK293T-FcγRIIIa F158
The experiment in a line: FACS on HEK293T-FcγRIIIa cells, assay 1 n=3.

For assay [4], the target named is T6, FcγRIIIa V158 on HEK293T cells (human, UniProt P08637 17-254).
T6 construct: whole, on cells
T6 sequence (P08637 17-254 F176V): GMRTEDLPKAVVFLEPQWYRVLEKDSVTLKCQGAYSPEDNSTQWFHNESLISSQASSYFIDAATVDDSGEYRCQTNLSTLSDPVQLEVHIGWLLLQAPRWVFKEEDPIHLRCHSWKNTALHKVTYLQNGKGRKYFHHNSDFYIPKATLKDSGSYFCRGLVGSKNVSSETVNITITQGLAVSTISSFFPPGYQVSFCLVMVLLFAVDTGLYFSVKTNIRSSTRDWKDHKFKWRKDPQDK
The experiment in a line: FACS on HEK293T-FcγRIIIa cells, assay 1 n=3.

Sequence of huFcγRIIIa_F158 His protein (P08637 17-208 limits assumed): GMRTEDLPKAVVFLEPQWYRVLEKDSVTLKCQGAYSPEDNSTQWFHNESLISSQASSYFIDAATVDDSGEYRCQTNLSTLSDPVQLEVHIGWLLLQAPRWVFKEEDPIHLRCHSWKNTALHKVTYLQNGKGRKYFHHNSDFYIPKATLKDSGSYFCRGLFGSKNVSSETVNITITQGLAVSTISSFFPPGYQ
T5 sequence (P08637 17-254): as the sequence (P08637 17-254 F176V) above, with V160F counted along it
T4 sequence (P55899 24-297): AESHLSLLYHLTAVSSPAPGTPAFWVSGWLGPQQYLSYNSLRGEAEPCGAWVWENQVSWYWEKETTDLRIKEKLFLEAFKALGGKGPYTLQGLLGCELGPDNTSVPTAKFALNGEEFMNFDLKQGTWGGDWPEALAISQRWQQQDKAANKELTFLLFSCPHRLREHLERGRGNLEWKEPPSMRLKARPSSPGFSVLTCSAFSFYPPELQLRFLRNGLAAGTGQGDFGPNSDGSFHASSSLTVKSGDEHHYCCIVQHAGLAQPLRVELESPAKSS
T1 sequence (P08637 17-208 F176V limits assumed): as the sequence (P08637 17-208 limits assumed) above, with F160V counted along it

B1: mAb1-ADLE-L242C-K334C (antibody)
chain 1: QVQLVQSGAEVKKPGASVKVSCKASGYSFTSYGISWVRQAPGQGLEWMGWISTYKGYTQYAQNFQGRVTITTDTPATTVYMELRSLRSDDTAVYYCARVLSETGYFYYYYYGMDVWGQGTLVTVSSASTKGPSVFPLAPSSKSTSGGTAALGCLVKDYFPEPVTVSWNSGALTSGVHTFPAVLQSSGLYSLSSVVTVPSSSLGTQTYICNVNHKPSNTKVDKKVEPKSCDKTHTCPPCPAPELLAGPDVFCFPPKPKDTLMISRTPEVTCVVVDVSHEDPEVKFNWYVDGVEVHNAKTKPREEQYNSTYRVVSVLTVLHQDWLNGKEYKCKVSNKALPLPEECTISKAKGQPREPQVYTLPPSRDELTKNQVSLTCLVKGFYPSDIAVEWESNGQPENNYKTTPPVLDSDGSFFLYSKLTVDKSRWQQGNVFSCSVMHEALHNHYTQKSLSLSPG
chain 2: QAVVTQPPSVSGAPGQRVTISCTGSSSNIGADYNVHWYQLLPGTAPKLLIYGNTNRPSGVPDRFSGSKSGTSASLAITGLQAEDEADYYCQSYDSSLSASVFGGGTKLTVLGQPKAAPSVTLFPPSSEELQANKATLVCLISDFYPGAVTVAWKADSSPVKAGVETTTPSKQSNNKYAASSYLSLTPEQWKSHRSYSCQVTHEGSTVEKTVAPTECS
In general, Kd refers to a measure of binding affinity in units of concentration. Low values mean a tighter complex, high ones a looser complex. One may read the EC50 as the midpoint of the concentration-response curve. Lower therefore signals higher potency in that assay. As for B1, the Kd worked out at 148 nM in assay [1], 161 nM in assay [2] and 956 nM with human FcRn. Further, the EC50 in the assay with human FcγRIIa R131 came to 428 nM; with human FcγRIIa H131, 145 nM; in assay [3], 11 nM; in assay [4], 5 nM.

B2: mAb1-ADE-L242C-K334C (antibody)
chain 1: QVQLVQSGAEVKKPGASVKVSCKASGYSFTSYGISWVRQAPGQGLEWMGWISTYKGYTQYAQNFQGRVTITTDTPATTVYMELRSLRSDDTAVYYCARVLSETGYFYYYYYGMDVWGQGTLVTVSSASTKGPSVFPLAPSSKSTSGGTAALGCLVKDYFPEPVTVSWNSGALTSGVHTFPAVLQSSGLYSLSSVVTVPSSSLGTQTYICNVNHKPSNTKVDKKVEPKSCDKTHTCPPCPAPELLAGPDVFCFPPKPKDTLMISRTPEVTCVVVDVSHEDPEVKFNWYVDGVEVHNAKTKPREEQYNSTYRVVSVLTVLHQDWLNGKEYKCKVSNKALPAPEECTISKAKGQPREPQVYTLPPSRDELTKNQVSLTCLVKGFYPSDIAVEWESNGQPENNYKTTPPVLDSDGSFFLYSKLTVDKSRWQQGNVFSCSVMHEALHNHYTQKSLSLSPG
chain 2: QAVVTQPPSVSGAPGQRVTISCTGSSSNIGADYNVHWYQLLPGTAPKLLIYGNTNRPSGVPDRFSGSKSGTSASLAITGLQAEDEADYYCQSYDSSLSASVFGGGTKLTVLGQPKAAPSVTLFPPSSEELQANKATLVCLISDFYPGAVTVAWKADSSPVKAGVETTTPSKQSNNKYAASSYLSLTPEQWKSHRSYSCQVTHEGSTVEKTVAPTECS
On to B2, for which the Kd in assay [1] was 193 nM; in assay [2], 162 nM; in the assay with human FcRn, 829 nM. Moreover, the EC50 in the assay with human FcγRIIa R131 was determined as 142 nM; in the assay with human FcγRIIa H131, 102 nM; in assay [3], 18 nM; in assay [4], 5 nM.

B3: mAb1-ADE-DQ-R292C-V302C (antibody)
chain 1: QVQLVQSGAEVKKPGASVKVSCKASGYSFTSYGISWVRQAPGQGLEWMGWISTYKGYTQYAQNFQGRVTITTDTPATTVYMELRSLRSDDTAVYYCARVLSETGYFYYYYYGMDVWGQGTLVTVSSASTKGPSVFPLAPSSKSTSGGTAALGCLVKDYFPEPVTVSWNSGALTSGVHTFPAVLQSSGLYSLSSVVTVPSSSLGTQTYICNVNHKPSNTKVDKKVEPKSCDKTHTCPPCPAPELLAGPDVFLFPPKPKDTLMISRDPEVTCVVVDVSHEDPEVKFNWYVDGVEVHNAKTKPCEEQYNSTYRCVSVLQVLHQDWLNGKEYKCKVSNKALPAPEEKTISKAKGQPREPQVYTLPPSRDELTKNQVSLTCLVKGFYPSDIAVEWESNGQPENNYKTTPPVLDSDGSFFLYSKLTVDKSRWQQGNVFSCSVMHEALHNHYTQKSLSLSPG
chain 2: QAVVTQPPSVSGAPGQRVTISCTGSSSNIGADYNVHWYQLLPGTAPKLLIYGNTNRPSGVPDRFSGSKSGTSASLAITGLQAEDEADYYCQSYDSSLSASVFGGGTKLTVLGQPKAAPSVTLFPPSSEELQANKATLVCLISDFYPGAVTVAWKADSSPVKAGVETTTPSKQSNNKYAASSYLSLTPEQWKSHRSYSCQVTHEGSTVEKTVAPTECS
Consider B3, for which the Kd amounted to 202 nM in assay [1], 214 nM in assay [2] and 198 nM with human FcRn. The EC50 turned out to be 45 nM with human FcγRIIa R131, 101 nM in the assay with human FcγRIIa H131, 17 nM in assay [3] and 10 nM in assay [4].

B4: mAb1-ADE-R292C-V302C (antibody)
chain 1: QVQLVQSGAEVKKPGASVKVSCKASGYSFTSYGISWVRQAPGQGLEWMGWISTYKGYTQYAQNFQGRVTITTDTPATTVYMELRSLRSDDTAVYYCARVLSETGYFYYYYYGMDVWGQGTLVTVSSASTKGPSVFPLAPSSKSTSGGTAALGCLVKDYFPEPVTVSWNSGALTSGVHTFPAVLQSSGLYSLSSVVTVPSSSLGTQTYICNVNHKPSNTKVDKKVEPKSCDKTHTCPPCPAPELLAGPDVFLFPPKPKDTLMISRTPEVTCVVVDVSHEDPEVKFNWYVDGVEVHNAKTKPCEEQYNSTYRCVSVLTVLHQDWLNGKEYKCKVSNKALPAPEEKTISKAKGQPREPQVYTLPPSRDELTKNQVSLTCLVKGFYPSDIAVEWESNGQPENNYKTTPPVLDSDGSFFLYSKLTVDKSRWQQGNVFSCSVMHEALHNHYTQKSLSLSPG
chain 2: QAVVTQPPSVSGAPGQRVTISCTGSSSNIGADYNVHWYQLLPGTAPKLLIYGNTNRPSGVPDRFSGSKSGTSASLAITGLQAEDEADYYCQSYDSSLSASVFGGGTKLTVLGQPKAAPSVTLFPPSSEELQANKATLVCLISDFYPGAVTVAWKADSSPVKAGVETTTPSKQSNNKYAASSYLSLTPEQWKSHRSYSCQVTHEGSTVEKTVAPTECS
Turning to B4, the Kd worked out at 211 nM in assay [1], 172 nM in assay [2] and 1310 nM in the assay with human FcRn. Also, the EC50 with human FcγRIIa R131 came to 43 nM; with human FcγRIIa H131, 92 nM; in assay [3], 19 nM; in assay [4], 12 nM.

B5: mAb1-ADE-DQ-L242C-K334C (antibody)
chain 1: QVQLVQSGAEVKKPGASVKVSCKASGYSFTSYGISWVRQAPGQGLEWMGWISTYKGYTQYAQNFQGRVTITTDTPATTVYMELRSLRSDDTAVYYCARVLSETGYFYYYYYGMDVWGQGTLVTVSSASTKGPSVFPLAPSSKSTSGGTAALGCLVKDYFPEPVTVSWNSGALTSGVHTFPAVLQSSGLYSLSSVVTVPSSSLGTQTYICNVNHKPSNTKVDKKVEPKSCDKTHTCPPCPAPELLAGPDVFCFPPKPKDTLMISRDPEVTCVVVDVSHEDPEVKFNWYVDGVEVHNAKTKPREEQYNSTYRVVSVLQVLHQDWLNGKEYKCKVSNKALPAPEECTISKAKGQPREPQVYTLPPSRDELTKNQVSLTCLVKGFYPSDIAVEWESNGQPENNYKTTPPVLDSDGSFFLYSKLTVDKSRWQQGNVFSCSVMHEALHNHYTQKSLSLSPG
chain 2: QAVVTQPPSVSGAPGQRVTISCTGSSSNIGADYNVHWYQLLPGTAPKLLIYGNTNRPSGVPDRFSGSKSGTSASLAITGLQAEDEADYYCQSYDSSLSASVFGGGTKLTVLGQPKAAPSVTLFPPSSEELQANKATLVCLISDFYPGAVTVAWKADSSPVKAGVETTTPSKQSNNKYAASSYLSLTPEQWKSHRSYSCQVTHEGSTVEKTVAPTECS
For the molecule B5, the Kd is 211 nM in assay [1], 191 nM in assay [2] and 161 nM in the assay with human FcRn. For the same molecule, the EC50 with human FcγRIIa R131 worked out at 152 nM; in the assay with human FcγRIIa H131, 68 nM; in assay [3] it was 19 nM; in assay [4], 7 nM.

B6: mAb1-ADE-DQ (antibody)
chain 1: QVQLVQSGAEVKKPGASVKVSCKASGYSFTSYGISWVRQAPGQGLEWMGWISTYKGYTQYAQNFQGRVTITTDTPATTVYMELRSLRSDDTAVYYCARVLSETGYFYYYYYGMDVWGQGTLVTVSSASTKGPSVFPLAPSSKSTSGGTAALGCLVKDYFPEPVTVSWNSGALTSGVHTFPAVLQSSGLYSLSSVVTVPSSSLGTQTYICNVNHKPSNTKVDKKVEPKSCDKTHTCPPCPAPELLAGPDVFLFPPKPKDTLMISRDPEVTCVVVDVSHEDPEVKFNWYVDGVEVHNAKTKPREEQYNSTYRVVSVLQVLHQDWLNGKEYKCKVSNKALPAPEEKTISKAKGQPREPQVYTLPPSRDELTKNQVSLTCLVKGFYPSDIAVEWESNGQPENNYKTTPPVLDSDGSFFLYSKLTVDKSRWQQGNVFSCSVMHEALHNHYTQKSLSLSPG
chain 2: QAVVTQPPSVSGAPGQRVTISCTGSSSNIGADYNVHWYQLLPGTAPKLLIYGNTNRPSGVPDRFSGSKSGTSASLAITGLQAEDEADYYCQSYDSSLSASVFGGGTKLTVLGQPKAAPSVTLFPPSSEELQANKATLVCLISDFYPGAVTVAWKADSSPVKAGVETTTPSKQSNNKYAASSYLSLTPEQWKSHRSYSCQVTHEGSTVEKTVAPTECS
Consider B6, for which the Kd in assay [1] was 183 nM; in assay [2], 155 nM; in the assay with human FcRn it was 217 nM. Moreover, the concentration giving a half-maximal response (EC50) with human FcγRIIa R131 was determined as 18 nM; in the assay with human FcγRIIa H131, 14 nM; in assay [3], 13 nM; in assay [4], 4 nM.

These data come from patent US20230077531A1 (Sanofi, published 2023).
